In the supplement of paper PMC12764529:
± gives the half width of the 95% confidence interval.

How the values were obtained:
[1] = folding stability dG unfold from trypsin proteolysis; higher = more stable
In short: (§1)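 Mini-proteins designed to be under 80 residues and free of cysteine were carried in a PA-tagged cDNA display construct and digested with trypsin and with chymotrypsin. Each protease was applied at 11 threefold-diluted concentrations, alongside a no-protease condition, before sequencing. K50 came from Bayesian fitting of the sequencing counts, and unfolding free energy was obtained by comparing it with a sequence-predicted unfolded-state K50 and a shared folded-state K50, for each protease separately or for both together. Designs were retained only if their AlphaFold2 dimer inter-PAE exceeded 15.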

[2] = folding stability dG unfold from chymotrypsin proteolysis; higher = more stable
In short: as §1

[3] = folding stability dG unfold (combined trypsin and chymotrypsin); higher = more stable
In short: as §1

| Sequence | folding stability dG unfold [1] [kcal/mol] | folding stability dG unfold [2] [kcal/mol] | folding stability dG unfold [3] [kcal/mol] |
| --- | --- | --- | --- |
| SGMIDVDLDYTTEDGRPVKVSASYDPATGVLTFKVPDNDDVIIATVTEVTTEDESVTVTLNVTRYSKELLSA [r9_587_JUSTAS] | 0.957 ± 0.072 | 2.54 ± 0.066 | 2.09 ± 0.14 |
| SGMMRTIVLKIPIEEARKLLGDPNKPVSEEELKALVEKLAKEKGLDVEEIKVEKLPDGTYVVTVLVPDLGSA [r9_52_JUSTAS] | 3.06 ± 0.12 | 4.12 ± 0.076 | 3.81 ± 0.099 |
| SGMPPVSFANLELVAVSPDGTVTVVRAELTGPDGERYVWTGSLSELLKRLEEEDLTLDNFKEGGLIVAVDSA [r9_1078_TrMRF] | 2.77 ± 0.06 | 3.75 ± 0.039 | 3.44 ± 0.041 |
| SGMSMAKDAKPIYIEYRDPNGKSYRVTEVKVNEDGTLTITIEYPDSIKTYTLPPNANYPLSSSLILSTVESA [r9_993_JUSTAS] | 1.4 ± 0.076 | 1.43 ± 0.13 | 1.45 ± 0.14 |
| SGMVEVKVTVPPGPATLTATPSDGSTYSKSIPANSEVTFTFPVPASLPSSTTITFTLTFPDTGTTTTTSVSA [r9_275_JUSTAS] | 1.28 ± 0.051 | 1.26 ± 0.25 | 1.28 ± 0.26 |
| SGPALEILRAASEEEGVPVLAEVVPDADGNPVIPAVVWSPEDIEAGELPGEVKEAPITVDGKTYRVVLFASA [r9_489_TrMRF] | -0.224 ± 0.11 | -0.0942 ± 0.18 | -0.0573 ± 0.086 |
| SGPFQFFVKIEYKGKNGKTQERELPINMPPGDFDKFIEEILDDPNLEGADDVEIDVYMAGTGRPQEIEIPSA [r9_97_TrROS] | 0.678 ± 0.061 | 1.22 ± 0.11 | 1.07 ± 0.092 |
| SGPTVTYKVPYTRDVAVPTVKIGAKVTTTTTVTKLPNGTLASTSTSADVELTLNLPPDTPLSPNYLSTGGSA [r9_277_JUSTAS] | -0.0817 ± 0.21 | -0.175 ± 0.38 | -0.0833 ± 0.2 |
| SGSLSIEFSSTEPSSPGSITLSKLFPEPEADRATHTIKLPNSTIELEFDSAEDLIKNVEKLLKELGNPGKSA [r9_258_JUSTAS] | 0.297 ± 0.058 | -0.0786 ± 0.18 | 0.115 ± 0.12 |
| SGSPDELEVVESEETVNIPPEELEAKYGIKVPENSTVVIKTKTLKPPSGNDIVEPEIKIYDPVTNEWIELSA [r9_349_JUSTAS] | -0.537 ± 0.13 | -0.474 ± 0.27 | -0.47 ± 0.25 |
| SGTRTVTVTGAVLSRLPDGTLVTDPGEAPVTVPVPPPKPRIEVPPELREKLREAAEKLGLELTEEDIETASA [r9_487_TrMRF] | -0.208 ± 0.36 | -0.896 ± 0.9 | -0.365 ± 0.26 |
| SGVQLEWKYDPEDNKREIKISIFFPADDPEKKKQFAKVIAKEIENMFQEQGWKPKKIDIEVMRMPPGQPLSA [r9_117_TrROS] | 0.889 ± 0.049 | 1.2 ± 0.063 | 1.02 ± 0.067 |
| SGYLDAPVKDIKVEKKPIPTSGKVTYTFEAETEDGKPVRVEYNPVTGKIVFGLPPGFKIKPGKPAEVVVGSA [r9_509_TrMRF] | 0.16 ± 0.081 | 0.885 ± 0.2 | 0.718 ± 0.13 |
| SHMVTVTIYKNGVKVKETEIPLEEVEKMPEEEIIEFAAEIAKKNPGVNYTFTITRPSGPSTVSIDGPEKLKS [r1_477_JUSTAS] | 0.762 ± 0.12 | 1.55 ± 0.14 | 1.28 ± 0.21 |
| SHTTTEPATGVTVEVVPSPDGTHVVTVKKPGGEVVKTVTVPSGPRPPGSTTPLTVALTDLPPDVETSVDLSS [r1_263_JUSTAS] | 0.416 ± 0.067 | 0.141 ± 0.077 | 0.232 ± 0.2 |
| SIEVEKTPDGKFEIENDNGWKVEIEVFPGMIEIKIKPVKVYVPDGKWFETPEEAEKMQEKNGVPITEDDLSA [r9_660_TrROS] | 0.615 ± 0.12 | 1.08 ± 0.071 | 0.743 ± 0.19 |
| SIIIQFDNPEEAKENAEDFINEFQDEFGPGQKIPITIHDPGGDPATFPIEIEPPPPPVEYDEENGKLKPDSA [r9_596_TrROS] | 1.13 ± 0.18 | 1.7 ± 0.17 | 1.51 ± 0.43 |
| SIIVEPLPDNTFIAYFPETDSVIEIRVDPSTGKAHAIAELPGEPVEATFDPRKGVLVIELPNGRIVLPLLSA [r9_541_TrMRF] | 2.28 ± 0.051 | 1.7 ± 0.065 | 2.01 ± 0.088 |

| Sequence | folding stability dG unfold [1] [kcal/mol] | folding stability dG unfold [2] [kcal/mol] | folding stability dG unfold [3] [kcal/mol] |
| --- | --- | --- | --- |
| SIKFPDGSEIEFEWSEDKEYEVELPNGPIVKIKKVIKEGESWIVEVEFEDGSKVILEVDPNNPEEVQKAIAS [r1_66_TrMRF] | 1.77 ± 0.086 | 2.19 ± 0.072 | 2.06 ± 0.1 |
| SKFDPDDPGQPVRFTVMIPVPEDAMKNGDLEEVRDKVEEAADMFRPHGMEVKDIEVPPEQGWVMVKFEMPSA [r9_75_TrROS] | -0.824 ± 0.34 | -0.222 ± 0.43 | -0.0605 ± 0.65 |
| SKGTFRAVLPLETLKELIERFKSKGYRIEVKPLSIKPFEVPGIREDGTPELFPVVEVEAEIEIYPPEDPASA [r9_991_TrMRF] | 1.671 ± 0.015 | 1.9 ± 0.063 | 1.82 ± 0.066 |
| SKIKIEVDEETGVITVTVEVDNLSEEEILDKLKEELEKLGFEVEVKVVKIEEVNGKVVVTVEIKIKPEKLSA [r9_347_TrROS_Hall] | 1.75 ± 0.11 | 0.9 ± 0.073 | 1.45 ± 0.093 |
| SKIKIKAKDKKTNIPIDEIDIYPLEDGSYGIKIIFTFPKEKKEITIPIPKNKKIEEFIKALGLEEIEIDASA [r9_492_TrMRF] | 1 ± 0.1 | 2.33 ± 0.13 | 1.79 ± 0.23 |
| SKIKILIAMTEDEIKKLAEELKKKGYEIKIKVKKIEKKKVKVKNKDGKTYEKEVVLVEVEIEIVPKGVKPSA [r9_991_TrROS_Hall] | 2.73 ± 0.43 | 3.98 ± 0.32 | 3.27 ± 0.73 |
| SKIKKIKRVEIFKKKEKGYVVKITVEIDGKEYEFTVPAGMSLEEALKELLKNKDVKIKSVEIKPVSKEELSA [r9_607_TrROS_Hall] | 0.0722 ± 0.22 | 0.734 ± 0.18 | 0.595 ± 0.29 |
| SKIKPGDVVTIMFPFPPGDPDQIREWAYWIARKLGPDVKVKSVEYNPNDPRYVQIEVRVPGGKITIHIMWSA [r9_1079_TrROS] | 2.7 ± 0.06 | 4.25 ± 0.076 | 3.7 ± 0.12 |
| SKIRIEWPDETQEIKIPKDASVAIDPGNGHIAIHGPDGEALGFPLGPNWKIEPDDDEIEITIPPPKPEDPSA [r9_653_TrROS] | -0.118 ± 0.15 | 0.141 ± 0.056 | 0.158 ± 0.2 |
| SKKIKLSEEMKEAIKEAVKKAKPGEKVEITIKLKDGSIIKIEIYPDGTIKISVFDKNGKKIKEFEIKIKPSA [r9_132_TrROS_Hall] | 1.43 ± 0.075 | 2.59 ± 0.12 | 1.81 ± 0.44 |
| SKKKKIKKITLTFTTSDGSTITIEIDADQTVTITLPDGSTITITFDKDTGILTITVTNKDGSKQEFKIELSA [r9_99_TrROS_Hall] | 1.82 ± 0.075 | 3.08 ± 0.051 | 2.6 ± 0.11 |
| SKKPDQPPKTVPIEIWVPLPPGQTPEWREMAEEFAEIFADELQQEGFKNVTVEVEPNKDGWVHIDAEVQVSA [r9_865_TrROS] | 0.821 ± 0.15 | -0.283 ± 0.21 | 0.322 ± 0.26 |
| SKKPDYVILIEIEVEKNENGEKTIKKKIIIYDKNGKKKLIAEEEITIEVNGIKIKIKIKIFPKGASLEELSA [r9_1113_TrROS_Hall] | 3.51 ± 0.26 | 2.23 ± 0.16 | 2.87 ± 0.2 |
| SKKPKIKIEIEIVEITEVKYDKKTNKITVKVKVKIKIEVEVNGKKKKIEIEIPKNMTLEEILKKLKELLKSA [r9_656_TrROS_Hall] | 2.15 ± 0.44 | 1.99 ± 0.12 | 2.28 ± 0.58 |
| SKKTITITIEDKETGLKVEITINEDGTITIKVYDKDGKLVAEVKAKIKLVKDKDGKIRLVIEEIEIKVKPSA [r9_434_TrROS_Hall] | 3.87 ± 0.46 | 3.04 ± 0.13 | 3.61 ± 0.44 |
| SKKTIYIVNEDGSIIRFDEETGEITIFNKETGKEVKIKVEKKGNELIITIEVNGKKYKIKIPKGDIIPIKSA [r9_239_TrROS_Hall] | 2.32 ± 0.062 | 4.16 ± 0.07 | 3.68 ± 0.24 |
| SKKVKIVIKIKVEVTNKDGKKKTFEFTLVIELSEEEIEKLKKKIEDLLNELKKKYPNIKKVEITEIKILPSA [r9_436_TrROS_Hall] | 3.59 ± 0.26 | 4.4 ± 0.32 | 4.31 ± 0.62 |
| SKKVTLPIYFPETGEVVTIDLDELAKALGVDPDKLTLTVVSSGKGRVYRIEVFKDGIRIEEIGDVPPELLSA [r9_819_TrMRF] | 2.2 ± 0.03 | 2.848 ± 0.017 | 2.63 ± 0.05 |
